Data published in PMC6053248, “GROWTH-REGULATING FACTOR 9 negatively regulates arabidopsis leaf growth by controlling ORG3 and restricting cell proliferation in leaf primordia”.
Residue numbers refer to the chain shown, from its start.

B1: GRFE1m7 (dsDNA)
DNA 1: CCGGTACTGGTCTGAGATACCAGAACTTCA
DNA 2: TGAAGTTCTGGTATCTCAGACCAGTACCGG
B2: GRFE1m5 (dsDNA)
DNA 1: B1 DNA 1 with G16C, A17T
DNA 2: B1 DNA 2 with T14A, C15G
B3: GRFE1m2 (dsDNA)
DNA 1: B1 DNA 1 with T11C, G16C, T18C
DNA 2: B1 DNA 2 with A13G, C15G, A20G
B4: GRFE1m3 (dsDNA)
DNA 1: B1 DNA 1 with G16C, T18A
DNA 2: B1 DNA 2 with A13T, C15G
B5: ORG3 EMSA competitor (dsDNA)
DNA 1: CTTTCACTTCATACAACCTGACACCAAATCATCCACATCA
DNA 2: TGTGGATGATTTGGTGTCAGGTTGTATGAAGTGAAAG
B6: ORG3 promoter 40-bp EMSA probe (dsDNA)
DNA 1: B5 DNA 1
DNA 2: TGATGTGGATGATTTGGTGTCAGGTTGTATGAAGTGAAAG
B7: ORG3 EMSA mutated competitor (dsDNA)
DNA 1: B5 DNA 1 with T19G
DNA 2: B6 DNA 2 with A22C
B8: GRFE1m1 (dsDNA)
DNA 1: B1 DNA 1 with T11A, G16C, T18C
DNA 2: B1 DNA 2 with A13G, C15G, A20T
B9: GRFE1m4 (dsDNA)
DNA 1: B1 DNA 1 with C12G, G16C
DNA 2: B1 DNA 2 with C15G, G19C
B10: GRFE1m6 (dsDNA)
DNA 1: B1 DNA 1 with T13G, G16C
DNA 2: B1 DNA 2 with C15G, A18C

Assays:
[1] = target: T1, GRF9-CELD (Arabidopsis thaliana (Col-0?)) (UniProt Q8S9M3); experiment: CELD plate binding assay (streptavidin plate); details: CELD plate assay: 25 mM HEPES/KOH pH 7.0, 50 mM KCl, 0.5 mM DTT, 10 uM ZnCl2, 0.15 ug/ul herring sperm DNA, 0.3 mg/ml BSA, 10% glycerol, 0.025% NP-40, 2 pmol …
T1 sequence: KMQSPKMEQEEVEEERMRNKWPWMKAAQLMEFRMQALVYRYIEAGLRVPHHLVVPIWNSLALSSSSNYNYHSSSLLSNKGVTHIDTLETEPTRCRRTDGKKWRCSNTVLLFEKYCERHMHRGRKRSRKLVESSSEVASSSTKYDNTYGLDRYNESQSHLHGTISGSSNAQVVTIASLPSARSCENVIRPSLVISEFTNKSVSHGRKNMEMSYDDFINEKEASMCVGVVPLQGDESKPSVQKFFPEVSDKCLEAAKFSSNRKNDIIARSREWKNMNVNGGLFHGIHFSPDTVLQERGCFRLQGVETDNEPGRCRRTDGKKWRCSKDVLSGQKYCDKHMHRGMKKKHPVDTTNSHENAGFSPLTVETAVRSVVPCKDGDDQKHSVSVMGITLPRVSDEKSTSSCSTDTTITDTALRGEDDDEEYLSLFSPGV

GRF9-CELD [2] = target: T2, GRF9-CELD (Arabidopsis thaliana, UniProt Q8S9M3 2-431); experiment: CELD plate binding assay (streptavidin plate); 10 uM ZnCl2; CELD plate assay: 25 mM HEPES/KOH pH 7.0, 50 mM KCl, 0.5 mM DTT, 10 uM ZnCl2, 0.15 ug/ul herring sperm DNA, 0.3 mg/ml BSA, 10% glycerol, 0.025% NP-40, 2 pmol probe; binding temperature not stated; EMSA buffer not given (cited protocols); details: protein: recombinant; tags: C-terminal CELD (cellulase D) fusion, 6xHis; label: biotin
T2 sequence: T1 sequence

GRF9-CELD [3] = target: T2, GRF9-CELD; experiment: competition; molar excess vs labelled N10; CELD plate assay: 25 mM HEPES/KOH pH 7.0, 50 mM KCl, 0.5 mM DTT, 10 uM ZnCl2, 0.15 ug/ul herring sperm DNA, 0.3 mg/ml BSA, 10% glycerol, 0.025% NP-40, 2 pmol probe; binding temperature not stated; EMSA buffer not given (cited protocols); details: protein: recombinant, tags: C-terminal CELD (cellulase D) fusion, 6xHis, label: none
GRF9-CELD [4] = target: T2, GRF9-CELD; experiment: EMSA; CELD plate assay: 25 mM HEPES/KOH pH 7.0, 50 mM KCl, 0.5 mM DTT, 10 uM ZnCl2, 0.15 ug/ul herring sperm DNA, 0.3 mg/ml BSA, 10% glycerol, 0.025% NP-40, 2 pmol probe; binding temperature not stated; EMSA buffer not given (cited protocols); details: protein: recombinant; tags: C-terminal CELD (cellulase D) fusion, 6xHis; label: 5'-DY682; blunt

| Molecule | binding signal (GRF9-CELD [2]) | further results |
| --- | --- | --- |
| AGGTAAGTTACTGACACACTCCATTCTTGG (double strand) [GRFE15] | – | binding signal (relative to GRFE1) [1]: 0.8 |
| CCGGTACTGGTCTGACATACCAGAACTTCA (double strand) [GRFE1] | – | binding signal (relative to GRFE1) [1]: 1 |
| B1 | 0 relative to GRFE1 | – |
| B2 | 0 relative to GRFE1 | – |
| B3 | 0.43 ± 0.04 relative to GRFE1 | – |
| B4 | 0.89 ± 0.08 relative to GRFE1 | – |
| B5 | – | binding result (GRF9-CELD [3]; 3' overhang 3 nt on strand 1 (so in the source)): binds |
| B6 | – | binding result (GRF9-CELD [4]): binds |
| B7 | – | binding result (GRF9-CELD [3]; blunt): no binding |
| B8 | 0.79 ± 0.03 relative to GRFE1 | – |
| B9 | 0 relative to GRFE1 | – |
| B10 | 0 relative to GRFE1 | – |
